Experimental data as given in PMC5491184.

Tests used:
ezrin = ezrin (UniProt P15311); assay: HA-NHE3 IP, LC-MS/MS spectral counts; conditions: reference: NHE3 wild type; sites S719
[1] = target: NHERF3 (endogenous, Caco-2/bbe) (UniProt Q5T2W1); assay: HA-NHE3 IP, LC-MS/MS spectral counts; conditions: reference: NHE3 wild type; sites S719

other: normalized exclusive spectrum count (ezrin): weaker; reference 8 | other: normalized exclusive spectrum count [1]: weaker; reference 4
Substance: NHE3 (from UniProt P26432) NHE3-S719A
